Measurements reported in article PMC10786891, “Massively parallel profiling of RNA-targeting CRISPR-Cas13d”.
Changes are numbered by the printed parent chain. Numbers in names are those of the source.

T1: EsCas13d, nuclease-dead (Eubacterium siraeum, UniProt B0MS50, R295A;H300A;R849A;H854A)
T1 sequence: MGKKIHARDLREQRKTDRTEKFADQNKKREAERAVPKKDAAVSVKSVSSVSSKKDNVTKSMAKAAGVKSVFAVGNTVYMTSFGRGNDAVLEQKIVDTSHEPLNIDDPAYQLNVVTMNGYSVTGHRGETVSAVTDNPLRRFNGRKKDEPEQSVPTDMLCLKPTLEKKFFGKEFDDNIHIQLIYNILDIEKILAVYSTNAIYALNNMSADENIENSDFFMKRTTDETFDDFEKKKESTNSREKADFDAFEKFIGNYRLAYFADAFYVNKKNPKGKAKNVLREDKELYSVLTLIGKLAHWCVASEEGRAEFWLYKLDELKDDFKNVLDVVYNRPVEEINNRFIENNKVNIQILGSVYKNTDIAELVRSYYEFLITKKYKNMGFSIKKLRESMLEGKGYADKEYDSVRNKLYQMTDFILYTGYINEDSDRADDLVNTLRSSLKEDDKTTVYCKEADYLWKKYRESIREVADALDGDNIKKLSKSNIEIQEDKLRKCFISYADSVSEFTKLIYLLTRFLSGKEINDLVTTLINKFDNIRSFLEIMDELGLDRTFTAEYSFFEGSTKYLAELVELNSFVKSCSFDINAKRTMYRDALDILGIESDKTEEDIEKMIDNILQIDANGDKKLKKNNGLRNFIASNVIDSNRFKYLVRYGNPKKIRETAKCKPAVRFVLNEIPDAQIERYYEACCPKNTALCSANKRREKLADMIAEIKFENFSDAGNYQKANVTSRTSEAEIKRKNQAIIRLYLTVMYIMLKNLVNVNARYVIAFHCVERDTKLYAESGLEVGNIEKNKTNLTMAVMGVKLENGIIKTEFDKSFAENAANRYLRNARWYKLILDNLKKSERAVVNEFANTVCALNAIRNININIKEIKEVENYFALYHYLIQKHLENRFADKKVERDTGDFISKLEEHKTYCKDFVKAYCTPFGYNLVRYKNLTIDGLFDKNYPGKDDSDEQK

B1: target 1 complement block 3-9 (mixed)
RNA 1: CACCCGUGCAAAAAUGCAGGGGUCUAAAACUGAGCGGAUAACCUCUCUAUGG
RNA 2: GGGAAUGGAUCCACAUCUACGAAUUCGUACCAUAGAGAGGUUUAGGCGACACCGAGAUCGGAAGAGCACACGU
B2: target 1 insC 3' of 16,insA 3' of 8 (mixed)
RNA 1: B1 RNA 1
RNA 2: GGGAAUGGAUCCACAUCUACGAAUUCGUACCAUAGACGAGGUUAUACCGCUCACCGAGAUCGGAAGAGCACACGU
B3: target 1 del1 (mixed)
RNA 1: B1 RNA 1
RNA 2: GGGAAUGGAUCCACAUCUACGAAUUCGUACCAUAGAGAGGUUAUCCGCUCCCGAGAUCGGAAGAGCACACGU
B4: target 1 MT 5'PFS GGG 3'PFS CAA (mixed)
RNA 1: B1 RNA 1
RNA 2: GGGAAUGGAUCCACAUCUACGAAUUCGGGCCAUAGAGAGGUUAUCCGCUCACAAAGAUCGGAAGAGCACACGU
B5: target 1 MT 5'PFS UAG 3'PFS AAG (mixed)
RNA 1: B1 RNA 1
RNA 2: B4 RNA 2 with G27U, G28A, C52A, A54G
B6: target 1 A1C,C4A (mixed)
RNA 1: B1 RNA 1
RNA 2: B4 RNA 2 with G28U, G29A, C48A, A51C, A53C, A54G
B7: target 1 MT 5'PFS GCU 3'PFS AGA (mixed)
RNA 1: B1 RNA 1
RNA 2: B4 RNA 2 with G28C, G29U, C52A, A53G
B8: target 1 MT 5'PFS UAG 3'PFS AAC (mixed)
RNA 1: B1 RNA 1
RNA 2: B4 RNA 2 with G27U, G28A, C52A, A54C
B9: target 1 MT 5'PFS UCG 3'PFS CUA (mixed)
RNA 1: B1 RNA 1
RNA 2: B4 RNA 2 with G27U, G28C, A53U
B10: target 1 MT 5'PFS GGG 3'PFS CAC (mixed)
RNA 1: B1 RNA 1
RNA 2: B4 RNA 2 with A54C
B11: target 1 MT 5'PFS GCU 3'PFS AGC (mixed)
RNA 1: B1 RNA 1
RNA 2: B4 RNA 2 with G28C, G29U, C52A, A53G, A54C
B12: target 1 MT 5'PFS AAG 3'PFS UUC (mixed)
RNA 1: B1 RNA 1
RNA 2: B4 RNA 2 with G27A, G28A, C52U, A53U, A54C
B13: target 1 MT 5'PFS CCU 3'PFS AUA (mixed)
RNA 1: B1 RNA 1
RNA 2: B4 RNA 2 with G27C, G28C, G29U, C52A, A53U
B14: target 1 MT 5'PFS GGG 3'PFS CAG (mixed)
RNA 1: B1 RNA 1
RNA 2: B4 RNA 2 with A54G
B15: target 1 MT 5'PFS UAG 3'PFS AAA (mixed)
RNA 1: B1 RNA 1
RNA 2: B4 RNA 2 with G27U, G28A, C52A
B16: target 1 MT 5'PFS CUU 3'PFS AAC (mixed)
RNA 1: B1 RNA 1
RNA 2: B4 RNA 2 with G27C, G28U, G29U, C52A, A54C
B17: target 1 MT 5'PFS GGG 3'PFS ACG (mixed)
RNA 1: B1 RNA 1
RNA 2: B4 RNA 2 with C52A, A53C, A54G
B18: target 1 MT 5'PFS GGG 3'PFS UUA (mixed)
RNA 1: B1 RNA 1
RNA 2: B4 RNA 2 with C52U, A53U
B19: target 1 MT 5'PFS GGG 3'PFS CAU (mixed)
RNA 1: B1 RNA 1
RNA 2: B4 RNA 2 with A54U
B20: target 1 MT 5'PFS GCA 3'PFS UUU (mixed)
RNA 1: B1 RNA 1
RNA 2: B4 RNA 2 with G28C, G29A, C52U, A53U, A54U
B21: target 1 MT 5'PFS GGG 3'PFS UUC (mixed)
RNA 1: B1 RNA 1
RNA 2: B4 RNA 2 with C52U, A53U, A54C
B22: target 1 U10A,G15C (mixed)
RNA 1: B1 RNA 1
RNA 2: B4 RNA 2 with G28U, G29A, G37C, U42A, A53C, A54G
B23: target 1 MT 5'PFS GAA 3'PFS CUU (mixed)
RNA 1: B1 RNA 1
RNA 2: B4 RNA 2 with G28A, G29A, A53U, A54U
B24: target 1 MT 5'PFS GAA 3'PFS CUA (mixed)
RNA 1: B1 RNA 1
RNA 2: B4 RNA 2 with G28A, G29A, A53U
B25: target 1 insA 3' of 17,insA 3' of 4 (mixed)
RNA 1: B1 RNA 1
RNA 2: B2 RNA 2 with C37A, A46C, C48G, G49C, C50A
B26: target 1 MT 5'PFS CCU 3'PFS AUC (mixed)
RNA 1: B1 RNA 1
RNA 2: B4 RNA 2 with G27C, G28C, G29U, C52A, A53U, A54C
B27: target 1 MT 5'PFS GCU 3'PFS UAU (mixed)
RNA 1: B1 RNA 1
RNA 2: B4 RNA 2 with G28C, G29U, C52U, A54U
B28: target 1 MT 5'PFS AGC 3'PFS AAA (mixed)
RNA 1: B1 RNA 1
RNA 2: B4 RNA 2 with G27A, G29C, C52A
B29: target 1 MT 5'PFS UCG 3'PFS UUU (mixed)
RNA 1: B1 RNA 1
RNA 2: B4 RNA 2 with G27U, G28C, C52U, A53U, A54U
B30: target 1 MT 5'PFS GCA 3'PFS UUG (mixed)
RNA 1: B1 RNA 1
RNA 2: B4 RNA 2 with G28C, G29A, C52U, A53U, A54G
B31: target 1 MT 5'PFS GGG 3'PFS ACA (mixed)
RNA 1: B1 RNA 1
RNA 2: B4 RNA 2 with C52A, A53C
B32: target 1 MT 5'PFS GGG 3'PFS UUU (mixed)
RNA 1: B1 RNA 1
RNA 2: B4 RNA 2 with C52U, A53U, A54U
B33: target 1 MT 5'PFS AAG 3'PFS UUG (mixed)
RNA 1: B1 RNA 1
RNA 2: B4 RNA 2 with G27A, G28A, C52U, A53U, A54G
B34: target 1 MT 5'PFS GGG 3'PFS UUG (mixed)
RNA 1: B1 RNA 1
RNA 2: B4 RNA 2 with C52U, A53U, A54G

These binders were tested against T1, EsCas13d, nuclease-dead (assay: crRNA (strand 1, pre-loaded); Mg2+; 40 mM Tris-HCl pH 7.5, 150 mM NaCl, 6 mM MgCl2, 1 mM DTT, 0.1% Tween-20, 0.2 mg/ml BSA; 25 C; 10 min per concentration, then washed). Conditions: tags: His6-TwinStrep-SUMO cleaved; N-terminal SNAP kept (SNAP-Surface 488); label: 3' end held by stalled T7 RNA polymerase.

Question: B1 was tested. Which Kd did it give?
Answer: The Kd was 8.8 ± 0.4 nM.

Question: For B2, which Kd is on record?
Answer: Its Kd is 56 ± 12 nM.

Question: B3 was tested. Which Kd did it give?
Answer: Its Kd is 39 ± 9 nM.

Question: How did the Kd turn out when B4 was run?
Answer: The Kd was 50.5 ± 21.5 nM.

Question: For B5, which Kd is on record?
Answer: The Kd was 45.5 ± 13 nM.

Question: Which Kd does the source give for B6 here?
Answer: Its Kd is 7.5 ± 1 nM.

Question: For B7, which Kd is on record?
Answer: Its Kd is 56 ± 16.5 nM.

Question: How did the Kd turn out when B8 was run?
Answer: The Kd was 34 ± 6 nM.

Question: How did the Kd turn out when B9 was run?
Answer: Its Kd is 29 ± 7 nM.

Question: For B10, which Kd is on record?
Answer: Its Kd is about 55.5 nM.

Question: How did the Kd turn out when B11 was run?
Answer: The Kd was 36 ± 7 nM.

Question: For B12, which Kd is on record?
Answer: The Kd was 16 ± 6 nM.

Question: With B13 as the binder, how does the Kd read?
Answer: Its Kd is 21 ± 5 nM.

Question: How did the Kd turn out when B14 was run?
Answer: The Kd was 32 ± 5.5 nM.

Question: With B15 as the binder, how does the Kd read?
Answer: The Kd was 34 ± 7 nM.

Question: Which Kd does the source give for B16 here?
Answer: Its Kd is 41 ± 17.5 nM.

Question: For B17, which Kd is on record?
Answer: Its Kd is 17.5 ± 1.85 nM.

Question: With B18 as the binder, how does the Kd read?
Answer: The Kd was 16.8 ± 2.55 nM.

Question: Which Kd does the source give for B19 here?
Answer: The Kd was 32 ± 12 nM.

Question: For B20, which Kd is on record?
Answer: The Kd was 11 ± 2.4 nM.

Question: How did the Kd turn out when B21 was run?
Answer: The Kd was 16.4 ± 1.95 nM.

Question: With B22 as the binder, how does the Kd read?
Answer: The Kd was 98 ± 17 nM.

Question: For B23, which Kd is on record?
Answer: The Kd was 18.5 ± 7.5 nM.

Question: B24 was tested. Which Kd did it give?
Answer: Its Kd is about 40 nM.

Question: B25 was tested. Which Kd did it give?
Answer: The Kd was 10 ± 0.7 nM.

Question: How did the Kd turn out when B26 was run?
Answer: The Kd was 21 ± 8 nM.

Question: With B27 as the binder, how does the Kd read?
Answer: Its Kd is 73 ± 28 nM.

Question: B28 was tested. Which Kd did it give?
Answer: Its Kd is about 52 nM.

Question: For B29, which Kd is on record?
Answer: The Kd was 24 ± 5 nM.

Question: How did the Kd turn out when B30 was run?
Answer: Its Kd is 5.14 ± 0.38 nM.

Question: For B31, which Kd is on record?
Answer: The Kd was 28.5 ± 6.5 nM.

Question: Which Kd does the source give for B32 here?
Answer: The Kd was 14.7 ± 2.05 nM.

Question: For B33, which Kd is on record?
Answer: The Kd was 13.5 ± 2 nM.

Question: For B34, which Kd is on record?
Answer: Its Kd is 7.3 ± 0.45 nM.
